This note sets out measurements from US20230406926A1 (Kyowa Kirin, published 2023).

Assay [1] deals with cynomolgus monkey CD3 on HSC-F cells (cynomolgus monkey, UniProt Q95LI5 22-198). Put plainly: flow cytometry, hybridoma supernatant on HSC-F cells, Alexa 647 anti-human IgG.
Experimental: The screening of anti-CD3 antibody-producing hybridomas was performed by flow cytometry. Cells cultured in a flask for floating cell culture were collected, washed twice with PBS, and then suspended in a staining buffer (PBS containing 0.02% EDTA, 0.05% NaN₃, and 1% BSA), and prepared so that the viable cell count was 2.0 to 5.0×10⁵ cells/50 μL. […] As negative control cells, unstained KHYG-1 cells (JCRB cell bank JCRB156) were used.
These three types of cells were mixed in equal amounts, and the resultant was dispensed into a 96-well plate at 50 μL/well, and incubated on ice for 30 minutes, and then, an equal amount of the undiluted hybridoma supernatant solution was added thereto and mixed therewith, and placed at 4° C. for 30 minutes. […] After performing centrifugation of the cells and washing with a staining buffer twice, the cells were suspended in a staining buffer, and the fluorescent intensity was measured with a flow cytometer CyAn ADP (Beckman Coulter, Inc.).
For assay [2], the target named is T1, His-tag-fused human CD3D&E protein (Sino Biological, Inc.) (human, UniProt P07766 23-126; P04234 22-105).
T1 construct: also called soluble CD3; human CD3 protein
Put plainly: SPR (Biacore), His-tagged human CD3D&E captured on anti-tetra His antibody, antibody as analyte, single cycle kinetics. Background: SPR reads the build-up and loss of mass on a sensor chip optically.
Experimental: The binding affinity of these antibodies for CD3 was measured by Biacore (GE Healthcare). Specifically, an anti-tetra His mouse antibody (QIAGEN NV.) was immobilized on a CM5 sensor chip at approximately 8000 RU using an amine coupling kit (GE Healthcare). As the coupling buffer, 10 mM sodium acetate (pH 4.5) was used. As the ligand, a His-tag-fused human CD3D&E protein (Sino Biological, Inc.) dissolved in HBS-EP(+) buffer at 5 μg/mL was captured at 5 μL/min for 120 seconds.
Subsequently, bispecific antibody solutions obtained by 2-fold serial dilution for 5 times from 10 μg/mL was added as the analyte at a flow rate of 30 μL/min, and binding reaction between each antibody and the analyte was measured for 2 minutes, and a dissociation reaction was measured for 5 minutes. The measurement was performed by single cycle kinetics method. The obtained sensorgram was analyzed using Bia Evaluation Software (GE Healthcare), and the kinetic constant of each antibody was calculated.

Another assay concerns the target T2, CD3 on T cells (UniProt P07766 23-207, limits assumed).
T2 construct: whole, on cells; also called CD3 on the surface of the membrane
Put plainly: flow cytometry on T cells by the method of Example 3, fluorescently labeled secondary antibody. On the technique in general: In flow cytometry, cells or beads pass a laser one at a time.

The target of another assay is T3, HER2 (human, UniProt P04626 23-1255).
T3 construct: whole, on cells; also called HER2 on the surface of the cell membrane
Put plainly: flow cytometry competition by the method of Example 3 (SK-BR-3 cells): inhibition of the binding of fluorescently labeled Trastuzumab.

T1 sequence (P07766 23-126, chain 1 of 2): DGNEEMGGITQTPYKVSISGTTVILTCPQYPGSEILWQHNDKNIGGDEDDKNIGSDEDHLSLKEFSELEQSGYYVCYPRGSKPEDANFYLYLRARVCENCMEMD
T1 sequence (P04234 22-105, chain 2 of 2): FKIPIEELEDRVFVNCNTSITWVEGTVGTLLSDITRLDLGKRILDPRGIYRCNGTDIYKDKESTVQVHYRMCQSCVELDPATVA
Sequence of cynomolgus monkey CD3 on HSC-F cells (Q95LI5 22-198): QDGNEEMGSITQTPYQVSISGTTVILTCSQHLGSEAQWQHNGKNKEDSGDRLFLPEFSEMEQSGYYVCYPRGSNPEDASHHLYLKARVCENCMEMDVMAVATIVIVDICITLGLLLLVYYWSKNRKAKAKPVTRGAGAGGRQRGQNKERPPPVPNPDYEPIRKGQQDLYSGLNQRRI
T2 sequence (P07766 23-207 limits assumed): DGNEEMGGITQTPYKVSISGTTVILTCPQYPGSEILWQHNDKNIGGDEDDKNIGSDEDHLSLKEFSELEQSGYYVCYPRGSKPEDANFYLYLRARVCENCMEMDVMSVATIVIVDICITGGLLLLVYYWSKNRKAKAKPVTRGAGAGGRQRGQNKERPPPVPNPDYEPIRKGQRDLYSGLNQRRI
Experimental for CD3 on T cells: Each of the various antibodies was added to T cells at a final concentration of 10 g/mL and allowed to react at 4° C. for 1 hour. After washing, Goat anti-Human IgG F(ab)₂-FITC (Acris Antibodies GmbH) diluted to 30 μg/mL was added thereto and allowed to react at 4° C. for 1 hour.
As a positive control, 30 μg/mL of an anti-CD3 antibody OKT-3 (abcam. plc) was used as the primary antibody, and Goat anti-mouse IgG F(ab)₂-FITC (Dako, Inc.) was used as the secondary antibody. After washing, the MFI of the antibody bound to T cells was measured with a flow cytometer Cytomics FC 500 MPL (Beckman Coulter, Inc.).
Experimental for HER2: Subsequently, binding inhibition analysis by flow cytometry was performed using an HER2-positive human breast cancer cell line SK-BR-3 (ATCC HTB-30).
As a negative control, human serum-derived IgG1/kappa (Millipore, Inc.) at the same concentration was added. After washing, mean fluorescent intensity (MFI) of the binding of SK-BR-3 cells was measured with a flow cytometer Cytomics FC 500 MPL (Beckman Coulter, Inc.).

B1: anti-CD3 monoclonal antibody KM14 (antibody, V domains shown)
VH: QVQLVESGGGVVQPGRSLRLSCEASGFTFSSHGMHWVRQAPGKGLEWVASIWYDGSKKYYADSVKGRFTISRDNSKNTLDLQMNSLRAEDTAVYYCAKTLYYYGSERAHGLDVWGQGTTVTVSS
VL: AIQLTQSPSSLSASVGDRVTITCRASQGISSALAWYQQKPGKAPNLLIYDASSLESGVPSRFSGSGSGTDFTLTISSLQPEDFATYYCQQFNSYPRTFGQGTKVEIK
notes: also called hybridoma clone KM14
With B1, in assay [1], the binding result is recorded as “binds”.

B2: 4D5mut_scSP34_IgG1 (DF) (bispecific antibody)
chain 1: EVQLVESGGGLVQPKGSLKLSCAASGFTFNTYAMNWVRQAPGKGLEWVARIRSKYNNYATYYADSVKDRFTISRDDSQSILYLQMNNLKTEDTAMYYCVRHGNFGNSYVSWFAYWGQGTLVTVSSGGGGSGGGGSGGGGSQAVVTQESALTTSPGETVTLTCRSSTGAVTTSNYANWVQEKPDHLFTGLIGGTNKRAPGVPARFSGSLIGDKAALTITGAQTEDEAIYFCALWYSNLWVFGGGTKLTVLGTKYGPPCPPCPAPEFEGGPSVFLFPPKPKDTLMISRTPEVTCVVVDVSQEDPEVQFNWYVDGVEVHNAKTKPREEQFNSTYRVVSVLTVLHQDWLNGKEYKCKVSNKGLPSSIEKTISKAKGQPREPQVCTLPPSQEEMTKNQVSLSCAVKGFYPSDIAVEWESNGQPENNYKTTPPVLDSDGSFFLVSKLTVDKSRWQEGNVFSCSVMHEALHNRFTQKSLSLSLGK
chain 2: not shown
chain 3: not shown
By Kd is commonly meant a measure of binding affinity in units of concentration. In turn, B2 registered a dissociation constant Kd in assay [2] of 12.6 nM.

B3: 4D5mut_scSP34(H05′)_IgG1 (DF) (bispecific antibody)
chain 1: EVQLVESGGGLVQPKGSLKLSCAASGFTFNTYAMNWVRQAPGKGLEWVARIRSKYNNYATYYADSVKDRFTISRDDSQSILYLQMNNLKTEDTAMYYCVRHGNFGNSDVSWFAYWGQGTLVTVSSGGGGSGGGGSGGGGSQAVVTQESALTTSPGETVTLTCRSSTGAVTTSNYANWVQEKPDHLFTGLIGGTNKRAPGVPARFSGSLIGDKAALTITGAQTEDEAIYFCALWYENLWVFGGGTKLTVLGTKYGPPCPPCPAPEFEGGPSVFLFPPKPKDTLMISRTPEVTCVVVDVSQEDPEVQFNWYVDGVEVHNAKTKPREEQFNSTYRVVSVLTVLHQDWLNGKEYKCKVSNKGLPSSIEKTISKAKGQPREPQVCTLPPSQEEMTKNQVSLSCAVKGFYPSDIAVEWESNGQPENNYKTTPPVLDSDGSFFLVSKLTVDKSRWQEGNVFSCSVMHEALHNRFTQKSLSLSLGK
chain 2: not shown
chain 3: not shown
In assay [2], B3 registered a Kd of 108 nM.

B4: DNP2_IgG1 (DF) (antibody, V domains shown)
VH: QVQLVQSGAEVKKPGASVKVSCKASGYTFTSYGISWVRQAPGQGLEWMGWISAYNGNTNYAQKLQGRVTMTTDTSTSTAYMELRSLRSDDTAVYYCARWDSSSWSFDYWGQGTLVTVSS
VL: DIQMTQSPSSLSASVGDRVTITCRASQGISSWLAWYQQKPEKAPKSLIYAASSLQSGVPSRFSGSGSGTDFTLTISSLQPEDFATYYCQQYNSYPYTFGQGTKLEIKR
notes: also called IgG1-type anti-2,4-dinitrophenyl (DNP) antibody, clone DNP2
For the molecule B4, the results for the binding result with CD3 on T cells and in the assay with HER2 were “no binding (tested: 10 nM)” and “no binding”, respectively.
